According to publication PMC12913813:

Molecular target: Smog::GFP (Drosophila)
Test: fluorescence correlation spectroscopy

## Smog::GFP (receptor)
  estimated fraction of dimers (monomer/dimer model), WT embryos: 68%
  estimated fraction of dimers (monomer/dimer model), control embryos: 79%
  estimated fraction of dimers (monomer/dimer model), gprk2 RNAi embryos: 100%
  estimated fraction of trimers (monomer/trimer model), control embryos: 21%
  estimated fraction of trimers (monomer/trimer model), gprk2 RNAi embryos: 76%
